Target: T1, human native APOJ (human, UniProt P10909 23-227; P10909 228-449)
T1 construct: Apolipoprotein J (Clusterin), human, native; also called isolated APOJ protein; Clusterin; source: bought: Biovendor (RD162034025)
Assay: co-IP; in vitro protein binding assay: 2 μg human native APOJ incubated with 150 ng recombinant WNT5A in 200 μl binding buffer (50 mM Tris pH 7.6, 100 mM NaCl, 1 mM EDTA) overnight at 4 °C; precipitated with corresponding antibody or IgG on DynaBeads; washes with 0.5% NP40
Details: both partners purified

T1 sequence (P10909 23-227, chain 1 of 2): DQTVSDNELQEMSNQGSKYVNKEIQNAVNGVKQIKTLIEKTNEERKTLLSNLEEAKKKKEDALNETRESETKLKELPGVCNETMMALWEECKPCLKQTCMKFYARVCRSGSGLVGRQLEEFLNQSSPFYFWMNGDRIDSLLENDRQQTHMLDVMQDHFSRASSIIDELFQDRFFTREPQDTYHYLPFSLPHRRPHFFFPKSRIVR
T1 sequence (P10909 228-449, chain 2 of 2): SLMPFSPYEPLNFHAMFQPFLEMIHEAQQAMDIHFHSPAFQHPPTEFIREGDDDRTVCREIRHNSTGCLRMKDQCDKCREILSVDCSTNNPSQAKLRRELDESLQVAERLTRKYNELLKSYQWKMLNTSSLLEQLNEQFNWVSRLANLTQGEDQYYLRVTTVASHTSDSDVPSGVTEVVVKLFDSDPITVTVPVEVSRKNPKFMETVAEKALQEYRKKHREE

B1: recombinant WNT5A (ligand, UniProt P22725 62-380, looked up)
chain: IIGAQPLCSQLAGLSQGQKKLCHLYQDHMQYIGEGAKTGIKECQYQFRHRRWNCSTVDNTSVFGRVMQIGSRETAFTYAVSAAGVVNAMSRACREGELSTCGCSRAARPKDLPRDWLWGGCGDNIDYGYRFAKEFVDARERERIHAKGSYESARILMNLHNNEAGRRTVYNLADVACKCHGVSGSCSLKTCWLQLADFRKVGDALKEKYDSAAAMRLNSRGKLVQVNSRFNSPTTQDLVYIDPSPDYCVRNESTGSLGTQGRLCNKTSEGMDGCELMCCGRGYDQFKTVQTERCHCKFHWCCYVKCKKCTEIVDQFVCK
notes: recombinant WNT5A, R&D Systems; 'P22725' is printed where a catalogue number would stand; elsewhere the catalogue number 645-WN-010 is printed; WNT5A'; also called rcWNT5A; rcWnt5a; source: bought: R&D Systems
binding result: binds
